B1: Twister Ribozyme (parent)
chain: AACACUGCCAAUGCCGGUCCCAAGCCCGGAUAAAAGUGGAGGGGGCGG

In the data set the parent is B1. The data set is described as follows: self-cleavage, relative activity (ratio to wild type); higher = more cleavage; co-transcriptional.
Turning to U18A G42C, the self-cleavage is 0.215.
Take C26G A30C: the self-cleavage was 0.0641.
Next, G17U G47U: 0.181.
Turning to C15U G29A, the self-cleavage is 0.927.
Next, C3A G29A: 0.232; A33C G48C: 1.1; U31A G43C: 0.168.
Next, U37G G44A: 0.703; A30C G44A: 1.01; C25U A33C: 0.791.
As to U31C A33U, the self-cleavage came out at 1.08.
Next, A34U G38U: 0.506; A11G A40C: 0.214; G17U C26U: 0.458.
Turning to C25U G44A, the self-cleavage turned out to be 0.811.
Consider G39C C46A, for which the self-cleavage came to 0.13.
U18C C25G: the self-cleavage came out at 0.104.
In the case of C20G G28U, the self-cleavage is 0.233.
Next, U18C A34C: 0.0598; G13C A22U: 0.16; G24A G39U: 0.0747.
Then C21G A22C, with 0.0386; and A32C A40G, with 0.134; and C3U U18A, with 0.158.
Turning to A23G G45C, the self-cleavage is 0.181.
Then A1U G43U, with 0.0499; and C26G G42U, with 0.13; and C15G U37A, with 0.0636.
Next, A22G G44A: 0.315; A23U G29U: 0.315.
A23U G29C: the self-cleavage came to 0.0484.
Then G28U G41U, with 0.419.
As for C8A U12A, the self-cleavage is 0.475.
Then A30C A33G, with 0.58; and A10U G24U, with 0.119.
Take C19G C46U: the self-cleavage amounted to 0.359.
For the variant U12G, the self-cleavage was 0.946.
Regarding G36A U37A, the self-cleavage came out at 0.166.
A2G A34U: the self-cleavage was found to be 0.166.
Next, C3A C8G: 0.0742.
As for G16A G43U, the self-cleavage was 0.321.
In the case of U6A C8U, the self-cleavage came out at 0.175.
As to C3G G7U, the self-cleavage was 0.057.
For C5U A34U, the self-cleavage turned out to be 0.631.
As for C3U C8U, the self-cleavage amounted to 0.216.
C46A G48A: the self-cleavage worked out at 0.837.
Then U18G A33G, with 0.0866; and U6A G17C, with 0.0763; and A33C A40G, with 0.182.
Regarding C25U G28C, the self-cleavage amounted to 0.412.
In the case of G16C, the self-cleavage was 0.663.
Next, C9U A30G: 0.865; A10C G41C: 0.23; A40C G47U: 0.228.
Then C5G U18C, with 0.196.
Then C3A G13C, with 0.0651; and A10C G24C, with 0.0859; and U18A G45C, with 0.155.
As to A32U A34U, the self-cleavage amounted to 0.89.
On to A23C A35C, for which the self-cleavage stood at 0.227.
C21U U37A: the self-cleavage came to 0.0811.
With C5U G29A, the self-cleavage amounted to 0.739.
Regarding C20U C26A, the self-cleavage is 0.138.
Then C15A G38A, with 0.4.
Then C15A G38C, with 0.452; and C8G A32C, with 0.323.
Then A2C G29A, with 0.0998.
For the variant A2C A32C, the self-cleavage stood at 0.1.
Next, G44U G47U: 0.783; C25U G43C: 0.102.
As for C8G C15U, the self-cleavage worked out at 0.534.
Then C14A G41A, with 0.591; and U31G G48C, with 1.19; and G28C G48C, with 0.83.
Then A1C G45U, with 0.22.
As for G7C G43C, the self-cleavage came out at 0.0825.
Turning to C3U A32U, the self-cleavage was 0.402.
Then C26U G42C, with 0.15.
Then U18C G39A, with 0.111.
Consider C14A U18G, for which the self-cleavage came out at 0.0811.
Next, A2G C3U: 0.0609; C5A U37G: 0.671.
Then C14G G24C, with 0.0845.
Next, C19A G44U: 0.679; A2G G28U: 0.286; A4U U37A: 0.7.
Regarding C15A U31A, the self-cleavage was 0.706.
For U12C A22C, the self-cleavage is 0.861.
In the case of C20U C21A, the self-cleavage worked out at 0.115.
Turning to A1C A32C, the self-cleavage was determined as 0.188.
Next, C20G G29C: 0.0469.
As for C3G G17C, the self-cleavage was found to be 0.0532.
Next, C25A A35U: 0.135; A1G G29U: 0.358; G42U G44U: 0.196.
Then G17C G38U, with 0.073.
As to A4U C20U, the self-cleavage stood at 0.0245.
On to U6C C20U, for which the self-cleavage was determined as 0.169.
Next, C5G A30G: 0.608.
Then A10U G13C, with 0.211; and C15G A40G, with 0.114; and A2U A35U, with 0.574.
Then A33C G43U, with 0.297.
Turning to A2C A30U, the self-cleavage was found to be 0.0662.
Then C21G C27U, with 0.0651; and A10G G29U, with 1.12; and G13U A23G, with 0.0827.
Then C27A G29C, with 0.0808; and A4G C26U, with 0.252.
Then G24C G41A, with 0.109; and A4C U31A, with 0.182; and A30G G45A, with 0.901.
For the variant G39U C46A, the self-cleavage is 0.19.
In the case of C14U G39U, the self-cleavage is 0.28.
Then C9G C15U, with 0.479; and A23G A32C, with 0.366.
In the case of A10C A23C, the self-cleavage was determined as 0.242.
Then A11C G39U, with 0.214.
Then A11C G39C, with 0.208.
A34G G42A: the self-cleavage amounted to 0.133.
Then G45U, with 0.902; and G45A, with 0.939.
Then A30U C46U, with 0.968; and C27G G29A, with 0.0827.
Next, U6A C26A: 0.144.
For G16C U18C, the self-cleavage is 0.114.
Take A2C C8U: the self-cleavage turned out to be 0.0384.
For the variant G42A G44A, the self-cleavage is 0.377.
In the case of A33G G39C, the self-cleavage worked out at 0.118.
As for A40U G48A, the self-cleavage was 0.159.
Then A2C G17C, with 0.0357; and C15G G29U, with 0.11.
Then G13C G16U, with 0.132; and A30U U37C, with 0.72.
Next, C26A G28A: 0.168; A1C C46G: 0.181; U12A G36U: 0.794.
As for G39U G43A, the self-cleavage was 0.138.
Then G36C G39U, with 0.128.
Next, C9U A33G: 0.548.
C25U C27G: the self-cleavage was determined as 0.101.
Next, G13C G38A: 0.219; C5A U12C: 0.462.
Then C15G G38A, with 0.0635; and C19A G47U, with 0.131; and U12A G44U, with 1.05.
Then A2G C46U, with 0.416.
G36U G47A: the self-cleavage was determined as 0.272.
Then A11G U37A, with 0.587; and C5G G45C, with 0.222; and C8G G39C, with 0.135.
In the case of C9U C14G, the self-cleavage was determined as 0.0927.
Next, A11C G16U: 0.0992; G7U C46A: 0.0526.
Next, U6A G29U: 0.767; U12C G45C: 0.584; G38A G44C: 0.932.
Next, C19A A23G: 0.0964; G7U A35U: 0.109; C21A A34U: 0.102.
Take C21G C26U: the self-cleavage was determined as 0.0515.
For A4G A23U, the self-cleavage was 0.358.
Take C27U A30G: the self-cleavage turned out to be 0.777.
Take C3G G16C: the self-cleavage came out at 0.123.
As to C19U C27U, the self-cleavage is 0.802.
As for G24A G42A, the self-cleavage is 0.0855.
Then U6C A32G, with 0.518.

The values above are taken from the RNAGym collection of RNA variant scans (doi:10.7554/elife.80360).
